Experimental data reported in the supplement of paper PMC9170038.

The sequences below were run on MS2 coat protein (assay: apparent KD of MS2 coat protein; higher = weaker reporter binding). Conditions: Eterna round: R107; input ligand: theophylline 20 uM.
Procedure, shortened: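 On-chip transcription from Illumina sequencing clusters produced the designed RNA switches. These were titrated with SNAP-549-labelled MS2 coat protein (twofold steps, 0.7 or 1.5 nM to 3 µM) in 100 mM Tris-HCl pH 7.5, 80 mM KCl, 4 mM MgCl2, with or without constant ligand. The apparent KD given is the per-design median of normalised cluster binding-curve fits.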
“AUACAUGAGGAUCACCCAUGUCAUACAGAAGGAGCGUCACAUAAGACAGGUAGGUCGCUGAUAAAUGGAUUAUAGUUUAUGAUUA [JR_SSArginiA_Sub016]” was tested, and the “apparent KD of MS2 coat protein” value was 29.6 nM. For “AGUCUUAUAGGAAGGAGCGCAUACUUCACAUGAGGAUCACCCAUGUCAAGACGUGAGUCAGUGCAGGUAGGUCGCCUAACUAAGA [Same State - Arginine B (Freestyle 13)]”, the “apparent KD of MS2 coat protein” value was 29.7 nM. For “AACGGUCGUACCGGAAUGAUCCUCAUGUAACGAGGACCGGUACGGCCGCCACUCGAUAACAUGAGGAUCACCCAUGUAAUAAUAA [|T'-M'-Trp-Ms2|_Design11]”, the “apparent KD of MS2 coat protein” value was 17 nM. “ACGCCCAGGUAGGCUUAGUGGGAUAUGGAAGGAGCGCCGAUGCAGGCAGGUAGGUCGCCAUAGAACAUGAGGAUCACCCAUGUAA [#05 Same State - Arginine A]” was tested, and the “apparent KD of MS2 coat protein” value was 37.9 nM. For “CAGCCACAUGAGGAUCACCCAUGUGAUGAUACCAGCUUCGUCUUAAGCCCUUGGCAGCAUAUCUCUUUGUUCUCAUACAUAGCAU [theeternabot_sameState_MS2_Theo_A_16]”, the “apparent KD of MS2 coat protein” value was 17.3 nM. “GAACAUAAGGAUAGUAUAAUAACUACAGAAGGAGCGUCAGGAAGGACAGGUAGGUCGCUGGAAGACAUGAGGAUCACCCAUGUUU [#03 Same State - Arginine A]” was tested, and the “apparent KD of MS2 coat protein” value was 28.8 nM. With “AUCCACAGCCGAAGGAGCGCUAUAGGAUGACAUGAGGAUCACCCAUGUGUGUGAUGUGGAUAGCAGGUAGGUCGCGGAGUGGAUU [Exclusion - Arginine B (Freestyle 10)]” the “apparent KD of MS2 coat protein” value was 92.5 nM. In the case of “AUAUUUAAUGGAAGGAGCGCGGAUAAUAAAGUGGGUAAACAUGAGGAUCACCCAUGUAAACCGCAGGUAGGUCGCCGAAAUAUAU [AstrosEXyARgB#8]”, the “apparent KD of MS2 coat protein” value is reported as 49.4 nM. In the case of “UGUAUGUGAUCUGAUACCAGUCCAACUGGUAAAACCUGAGGAACACCCAGGUAAAAUUGGGACCCUUGGCAGCAGAUCGCAUACU”, the “apparent KD of MS2 coat protein” value is reported as 147 nM. In the case of “CUAUAGAUAAGAAGGAGCGUCGAAAAUGGGUAAACAUGAGGAUCACCCAUGUAAAGGGAACGACAGGUAGGUCGCUUAUUUAUAG [AstromonsSSArgB#6]”, the “apparent KD of MS2 coat protein” value is reported as 206 nM. For “UCAGUGCAAGGAAGGAGCGGGUACAUGAGGAUCACCCAUGUGCAAGUGGUGAGUGUUCGUGCCCAGGUAGGUCGCCUAGCCUGGU [XArg-B19]”, the “apparent KD of MS2 coat protein” value was 122 nM. In the case of “UUCGCUGAGGGAAGGAGCGUGAAGACAUGAGGAUCACCCAUGUAGAGGCGCCGAAGGCGUUCGCAGGUAGGUCGCCCUCAGUGAG [#1 Same State - Arginine B Attempt #23 (HarryS)]”, the “apparent KD of MS2 coat protein” value is reported as 24.7 nM. With “AAUAAAUCACAUGAGGAUCACCCAUGUGAUACCAGCCUGGAAACAGGCCCUUGGCAGCACAUGAGGAUCACCCAUGUGCUAAAUA [TheoAX 1 #DoubleMS2 #OpenEnded]” the “apparent KD of MS2 coat protein” value was 8.81 nM. “UGUCACUGUUUGGUUCAAUGAAGAAGAAUUCGAGGACCGGUACGGCCGCCACUCGCUAUGCAACAUGAGGAUCACCCAUGUAAAA [theeternabot_exclusion_MS2_Trp_A_31]” was tested, and the “apparent KD of MS2 coat protein” value was 17 nM. “GAUAUGAUAAGAAGGAGCGUCGAAAAUGGGUAAACAUGAGGAUCACCCAUGUAAAGGGAACGACAGGUAGGUCGCUUAUUAUAUC [AstromonsSSArgB#19]” was tested, and the “apparent KD of MS2 coat protein” value was 190 nM. For “AUUUAUUAGACGGCCGCCACUUGAAAGCGACCUCAUAAAUGGGAACAUGAGGAUCACCCAUGUAAGAGGACCGGGUCUAGUAGAU [TryptB-ms2@45]”, the “apparent KD of MS2 coat protein” value was 150 nM. With “CGGCCCUCACCUGAGGAACACCCAGGUGAUACCAGCCUGGAAACAGGCCCUUGGCAGCACCAGGUCAUCAAAGAUGACCAAGCCG [TheoAX 24 #SwitchBubble #AlternativeMS2]” the “apparent KD of MS2 coat protein” value was 28.7 nM. “UGUAUGGACUGAAGGAGCGGUAGAUAACUUGAGGAUCACCCAGGUAAUAAGGCGAAAGCCUACCAGGUAGGUCGCAGUCCAUACU” was tested, and the “apparent KD of MS2 coat protein” value was 171 nM. For “CUUGUCGUAACUGAUACCAGUGUACUGACAUGAGGAUCACCCAUGUUGGGUUUUGUUGUACACCCUUGGCAGCAGAAUCGAUAAG [AstrosExyTheB#9]”, the “apparent KD of MS2 coat protein” value was 95.3 nM.

Same assay, conditions: Eterna round: R107; input ligand: theophylline 2 mM
“AUGGUUGUCGCGGCCGCCACUGUCGGCCGCCACUAAACAUGAGGAUCACCCAUGUAGGACCGGGACAGGACCGGGUGAUAACCAC [TryBS - #DoubleAptamer 3]” was tested, and the “apparent KD of MS2 coat protein” value was 33.2 nM. For “AGUCUUGAACGAAGGAGCGACGUACAUGAGGAUCACCCAUGUGUGGAGCGAAAGCUCCAACGUCAGGUAGGUCGCGUUCGAGACA [Omei Arginine B SS A v2]”, the “apparent KD of MS2 coat protein” value was 14.9 nM. “UAGCAUAGUACGGCCGCCACUCCUGGUUCCCGGCCGUGUGUAAGACAUGAGGAUCACCCAUGUAGGAGGACCGGGUAUCGCUUGC [theeternabot_sameState_MS2_Trp_B_22]” was tested, and the “apparent KD of MS2 coat protein” value was 15.6 nM. For “UCGCUCUGGGUGAAUUCCGGAGAUGUGGAAGGAGCGGACGAAAGUCCAGGUAGGUCGCCAUCGGACAUGAGGAUCACCCAUGUAC [Same State - Arginine A (Freestyle 22)]”, the “apparent KD of MS2 coat protein” value was 100 nM. In the case of “UUGGAUAUGCGAAGGAGCGGGAAAUAUAUAUAUAUAAUCCUAACAUGAGGAUCACCCAUGUCCCAGGUAGGUCGCGCAUAUUUGG [12.H]”, the “apparent KD of MS2 coat protein” value is reported as 70.7 nM. “UUACAUGAGGAUCACCCAUGUCAUACAGAAGGAGCGUCACAUAAGACAGGUAGGUCGCUGUUAUAUCAUACUAUUAUAUCCUCUA [JR_Nu_ExcArginiA_Sub028]” was tested, and the “apparent KD of MS2 coat protein” value was 38.2 nM. With “ACAAGAGGUGGAAGGAGCGGGAGACAUGAGGAUCACCCAUGUGAAGUUUCGAGAGGAUCAUCCCAGGUAGGUCGCCAUGUCGAAA [ojjomullin]” the “apparent KD of MS2 coat protein” value was 228 nM. “GAUUAAACAUGAGGAUCACCCAUGUAUAUACGAGGACCGGUACGGCCGCCACUCGUAAACGAGUAUCCUCGAAUAAACAUGAUAA [AK 2.1 SS Trypt (A)]” was tested, and the “apparent KD of MS2 coat protein” value was 182 nM. In the case of “AACAUGAGGGCGGCCGCCACUCCAUGAACAUGAGGAUCACCCAUGUUGAGGAUCACCCAUGUUGUGAGGACCGGGCCACAUGAGG [Exclusion Tryptophan B 3]”, the “apparent KD of MS2 coat protein” value is reported as 59.8 nM. In the case of “GCGAUGGAGCGAAGGAGCGGCUGUGACUACAUGAGGAUCACCCAUGUACGAUCGUAAGGUAGCCAGGUAGGUCGCGCUCCAUCGC [SSAB NP+V+V2 #17]”, the “apparent KD of MS2 coat protein” value is reported as 41.8 nM. “UGGUGUAGGGUAAAUAGGCUGAGUACAGAAGGAGCGCGAAUAAACGCAGGUAGGUCGCUGGACACAUGAGGAUCACCCAUGUUGA [Same State Arginine A GF 29]” was tested, and the “apparent KD of MS2 coat protein” value was 27.3 nM. In the case of “CGAGUAAGAACAAUCGAAUAACGGUUUUCGCGAGGACCGGUACGGCCGCCACUCGUGUGAAAUAACACAUGAGGAUCACCCAUGU [3'end-1]”, the “apparent KD of MS2 coat protein” value is reported as 27.3 nM. “AAGUGGCACGGAAGGAGCGAGUUUACCUAGAUAACAUGAGGAUCACCCAUGUAUAAUGGGACUCAGGUAGGUCGCCGUUGUCACU [#29 Same State - Arginine B]” was tested, and the “apparent KD of MS2 coat protein” value was 32.8 nM. In the case of “AUACAUGAGGAUCACCCAUGUCAUACAGAAGGAGCGUCACAUAAGACAGGUAGGUCGCUGAUAAAUGGAUUAUAGUUUAUGAUUA [JR_SSArginiA_Sub016]”, the “apparent KD of MS2 coat protein” value is reported as 20.3 nM. With “AGUCUUAUAGGAAGGAGCGCAUACUUCACAUGAGGAUCACCCAUGUCAAGACGUGAGUCAGUGCAGGUAGGUCGCCUAACUAAGA [Same State - Arginine B (Freestyle 13)]” the “apparent KD of MS2 coat protein” value was 32.1 nM. In the case of “AACGGUCGUACCGGAAUGAUCCUCAUGUAACGAGGACCGGUACGGCCGCCACUCGAUAACAUGAGGAUCACCCAUGUAAUAAUAA [|T'-M'-Trp-Ms2|_Design11]”, the “apparent KD of MS2 coat protein” value is reported as 17.2 nM. With “ACGCCCAGGUAGGCUUAGUGGGAUAUGGAAGGAGCGCCGAUGCAGGCAGGUAGGUCGCCAUAGAACAUGAGGAUCACCCAUGUAA [#05 Same State - Arginine A]” the “apparent KD of MS2 coat protein” value was 33.1 nM. For “GAACAUAAGGAUAGUAUAAUAACUACAGAAGGAGCGUCAGGAAGGACAGGUAGGUCGCUGGAAGACAUGAGGAUCACCCAUGUUU [#03 Same State - Arginine A]”, the “apparent KD of MS2 coat protein” value was 21.1 nM. “AUCCACAGCCGAAGGAGCGCUAUAGGAUGACAUGAGGAUCACCCAUGUGUGUGAUGUGGAUAGCAGGUAGGUCGCGGAGUGGAUU [Exclusion - Arginine B (Freestyle 10)]” was tested, and the “apparent KD of MS2 coat protein” value was 29.1 nM. For “AUAUUUAAUGGAAGGAGCGCGGAUAAUAAAGUGGGUAAACAUGAGGAUCACCCAUGUAAACCGCAGGUAGGUCGCCGAAAUAUAU [AstrosEXyARgB#8]”, the “apparent KD of MS2 coat protein” value was 57.6 nM. In the case of “UGUAUGUGAUCUGAUACCAGUCCAACUGGUAAAACCUGAGGAACACCCAGGUAAAAUUGGGACCCUUGGCAGCAGAUCGCAUACU”, the “apparent KD of MS2 coat protein” value is reported as 23 nM.
